Assay results published in publication doi:10.1101/2020.11.13.382242.
“And” between values parts separate entries of the source, which are not always exact repeats. Equal values may be shown once.

Key:
Assay in all cases: fluorescence fluctuation spectroscopy
[1] = biological target: Full-length GFP-CPSF6 (isoform 2; cell-free expressed, N-terminal GFP tag)
[2] = biological target: HIV-1 capsid particles self-assembled from CA [change] (disulfide cross-linked cones and tubes) (HIV-1)
[3] = biological target: AF568-labelled HIV-1 capsid particles co-assembled from CA [change] and CA [change]-AF568 (HIV-1)

Full-length GFP-CPSF6 (isoform 2; cell-free expressed, N-terminal GFP tag), sequence (Q16630 whole entry, canonical isoform): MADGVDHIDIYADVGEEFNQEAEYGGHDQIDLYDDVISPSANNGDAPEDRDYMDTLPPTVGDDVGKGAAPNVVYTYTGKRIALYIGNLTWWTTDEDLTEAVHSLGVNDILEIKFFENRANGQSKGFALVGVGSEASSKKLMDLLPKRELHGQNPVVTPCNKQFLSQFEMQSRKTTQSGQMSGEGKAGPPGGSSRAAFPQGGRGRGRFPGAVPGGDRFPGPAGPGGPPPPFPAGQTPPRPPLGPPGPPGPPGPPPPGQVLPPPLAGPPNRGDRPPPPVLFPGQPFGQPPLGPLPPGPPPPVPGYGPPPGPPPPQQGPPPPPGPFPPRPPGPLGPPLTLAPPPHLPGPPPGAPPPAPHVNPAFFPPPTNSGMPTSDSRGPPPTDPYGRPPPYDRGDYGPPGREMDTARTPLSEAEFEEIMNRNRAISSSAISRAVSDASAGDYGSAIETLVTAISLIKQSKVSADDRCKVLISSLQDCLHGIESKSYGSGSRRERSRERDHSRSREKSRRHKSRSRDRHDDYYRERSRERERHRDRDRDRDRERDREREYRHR

Substance	fold increase in the brightness parameter compared to monomeric GFP [1]	fold increase in the brightness parameter in the presence of capsid [2]	Kd [3]	analyte:CA intensity ratio relative to CPSF6-AF488 [3]
Full-length GFP-CPSF6 (isoform 2; cell-free expressed, N-terminal GFP tag) (natural protein)	4 fold and 8 fold	10 fold		
Untagged recombinant CypA labelled with Alexa Fluor 488-C5 maleimide (from UniProt P62937 1-165) (natural protein)			16.5 µM	5 fold
